Test results published in patent US20190233522A1 (Genmab, published 2019).

Columns and labels:
[1] = biological target: T1, AXL (human, UniProt P30530 26-447, limits assumed); assay: not described
T1 construct: neither the species nor the construct used is stated there; also called human AXL protein; UFO

[2] = biological target: T1, AXL; assay: competition with Gas6; assay not described

T1 sequence (P30530 26-447 limits assumed): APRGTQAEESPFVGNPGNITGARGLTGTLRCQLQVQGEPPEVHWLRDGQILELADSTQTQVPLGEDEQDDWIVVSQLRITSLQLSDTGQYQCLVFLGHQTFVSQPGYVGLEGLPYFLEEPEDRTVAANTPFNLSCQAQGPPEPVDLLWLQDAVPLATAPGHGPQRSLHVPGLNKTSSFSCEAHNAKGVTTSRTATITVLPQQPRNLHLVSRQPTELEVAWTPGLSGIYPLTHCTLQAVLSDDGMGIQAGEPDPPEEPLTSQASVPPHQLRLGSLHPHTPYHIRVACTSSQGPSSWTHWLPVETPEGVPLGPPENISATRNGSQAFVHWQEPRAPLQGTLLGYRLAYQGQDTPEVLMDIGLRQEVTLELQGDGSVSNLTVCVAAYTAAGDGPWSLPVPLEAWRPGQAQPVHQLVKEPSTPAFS

| Binder | binding result [1] | binding result [2] |
| --- | --- | --- |
| IgG1-AXL-148-vcMMAE (antibody, V domains shown, vcMMAE alkylated to cysteines of the reduced antibody (positions not given), Antibody-drug conjugate of antibody 148 with vcMMAE; IgG1 by name; also called IgG1-1021-148-MMAE; IgG1-AXL-148-MMAE) VH: EVQLLESGGGLVQPGGSLRLSCAASGFTFSSYAMTWVRQAPGKGLEWVSAISISGGSTFYADSVKGRFTISRDNSKNTLYLQMNSLRAEDTAVYYCRGYSGYVYDAFDFWGQGTMVTVSS VL: DIQMTQSPSSLSASVGDRVTITCRASQGISNWLAWYQQKPEKAPKSLIYAASSLQSGVPSRFSGSGSGTDFTLTISSLQPEDFATYYCQQYNSYPLTFGGGTKVEIK | binds | – |
| IgG1-AXL-061-vcMMAE (antibody, V domains shown, vcMMAE alkylated to cysteines of the reduced antibody (positions not given), Antibody-drug conjugate of antibody 061 with vcMMAE; IgG1 by name) VH: QVQLVQSGAEVKKPGASVKVSCKASGYAFTGYGISWVRQAPGQGLEWIGWISAYNGNTNYVQNLQDRVTMTTDTSTSTAYMELRSLRSDDTAVYYCARDHISMLRGIIIRNYWGQGTLVTVSS VL: not shown | binds | – |

Results, then the binder that gave them:

| binding result [1] | binding result [2] | Binder |
| --- | --- | --- |
| – | binds | IgG1-AXL-061 (antibody, V domains shown, IgG1 by name; Unconjugated antibody) VH: QVQLVQSGAEVKKPGASVKVSCKASGYAFTGYGISWVRQAPGQGLEWIGWISAYNGNTNYVQNLQDRVTMTTDTSTSTAYMELRSLRSDDTAVYYCARDHISMLRGIIIRNYWGQGTLVTVSS VL: not shown |
| binds | – | IgG1-AXL-107-vcMMAE (antibody, V domains shown, also called HuMax-AXL-ADC; IgG1-1021-107-MMAE) VH: EVQLLESGGGLVQPGGSLRLSCAASGFTFSSYAMNWVRQAPGKGLEWVSTTSGSGASTYYADSVKGRFTISRDNSKNTLYLQMNSLRAEDTAVYYCAKIWIAFDIWGQGTMVTVSS VL: not shown |
